Results published in patent US20210030857A1 (NGM BIOPHARMACEUTICALS, published 2021).
Several values for one entry are separate records, joined by “and”; a condition that tells them apart may be missing. Equal entries are not always repeated.

Legend:
[1] = biological target: T1, human beta klotho / human FGFR1c receptor complex on cells (human, UniProt Q86Z14 1-1044; P11362 22-822); assay: cell-based or functional assay
[2] = biological target: cynomolgus beta klotho / human FGFR1c receptor complex on cells (cynomolgus monkey (Macaca …)); assay: cell-based or functional assay
Chain of cynomolgus beta klotho / human FGFR1c receptor complex on cells (cynomolgus monkey (Macaca …)) (chain, as listed by the source limits assumed, chain 1 of 2): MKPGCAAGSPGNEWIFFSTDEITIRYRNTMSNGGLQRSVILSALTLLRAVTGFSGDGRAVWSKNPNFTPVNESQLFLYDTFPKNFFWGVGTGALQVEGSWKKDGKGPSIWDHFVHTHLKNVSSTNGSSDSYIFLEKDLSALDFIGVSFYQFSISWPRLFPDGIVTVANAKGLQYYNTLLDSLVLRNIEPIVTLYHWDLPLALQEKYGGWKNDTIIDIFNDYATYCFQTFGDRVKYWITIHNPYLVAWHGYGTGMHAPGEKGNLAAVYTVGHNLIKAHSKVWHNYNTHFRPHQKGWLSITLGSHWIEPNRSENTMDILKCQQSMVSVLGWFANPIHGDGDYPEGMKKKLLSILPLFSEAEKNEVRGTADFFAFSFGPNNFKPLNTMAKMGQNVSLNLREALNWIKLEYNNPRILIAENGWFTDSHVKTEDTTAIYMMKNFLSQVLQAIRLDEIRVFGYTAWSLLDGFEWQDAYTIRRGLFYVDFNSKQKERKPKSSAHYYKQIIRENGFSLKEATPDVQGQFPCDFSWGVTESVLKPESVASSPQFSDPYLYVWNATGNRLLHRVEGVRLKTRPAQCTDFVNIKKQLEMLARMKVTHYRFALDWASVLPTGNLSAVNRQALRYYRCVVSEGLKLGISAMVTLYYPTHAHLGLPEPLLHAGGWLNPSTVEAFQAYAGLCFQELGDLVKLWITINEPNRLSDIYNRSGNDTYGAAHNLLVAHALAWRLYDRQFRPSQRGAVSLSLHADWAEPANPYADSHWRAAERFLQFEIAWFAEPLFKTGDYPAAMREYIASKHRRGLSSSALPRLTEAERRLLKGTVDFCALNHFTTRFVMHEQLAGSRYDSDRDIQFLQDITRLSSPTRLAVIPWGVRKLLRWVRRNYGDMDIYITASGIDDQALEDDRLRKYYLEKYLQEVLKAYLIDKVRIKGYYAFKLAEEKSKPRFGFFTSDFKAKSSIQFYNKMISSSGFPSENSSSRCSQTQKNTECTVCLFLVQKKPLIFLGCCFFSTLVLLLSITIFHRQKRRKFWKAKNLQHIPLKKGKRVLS
Chain of cynomolgus beta klotho / human FGFR1c receptor complex on cells (cynomolgus monkey (Macaca …)) (chain, as listed by the source limits assumed, chain 2 of 2): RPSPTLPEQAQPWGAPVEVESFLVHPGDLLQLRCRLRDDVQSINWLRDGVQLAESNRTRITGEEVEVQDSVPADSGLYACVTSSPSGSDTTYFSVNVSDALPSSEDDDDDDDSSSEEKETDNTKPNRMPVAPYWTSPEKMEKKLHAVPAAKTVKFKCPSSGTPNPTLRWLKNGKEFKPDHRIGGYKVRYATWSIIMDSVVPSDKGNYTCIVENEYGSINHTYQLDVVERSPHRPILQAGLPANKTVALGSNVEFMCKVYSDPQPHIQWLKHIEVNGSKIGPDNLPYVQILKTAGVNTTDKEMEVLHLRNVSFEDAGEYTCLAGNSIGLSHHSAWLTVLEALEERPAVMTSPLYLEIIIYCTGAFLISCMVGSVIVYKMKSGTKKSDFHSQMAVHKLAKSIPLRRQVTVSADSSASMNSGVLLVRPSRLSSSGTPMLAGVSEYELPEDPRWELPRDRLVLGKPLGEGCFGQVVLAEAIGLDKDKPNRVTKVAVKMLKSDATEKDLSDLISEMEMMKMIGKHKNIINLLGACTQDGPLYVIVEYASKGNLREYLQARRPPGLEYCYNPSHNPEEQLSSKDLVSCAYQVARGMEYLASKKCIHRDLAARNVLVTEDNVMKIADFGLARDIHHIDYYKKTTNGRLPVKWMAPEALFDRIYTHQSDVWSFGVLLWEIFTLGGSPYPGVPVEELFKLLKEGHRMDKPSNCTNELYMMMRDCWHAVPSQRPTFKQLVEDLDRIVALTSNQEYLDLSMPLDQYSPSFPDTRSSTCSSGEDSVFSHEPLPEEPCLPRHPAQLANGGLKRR

[3] = biological target: T1, human beta klotho / human FGFR1c …; assay: cell-based or functional assay; remark: listed apart in the source
[4] = biological target: T2, mouse-human KLB chimeric protein (mouse KLB (M1-F506)-human KLB (S509-S1044)) on cells (mouse/human chimera, UniProt Q86Z14 1-1044 (human entry)); assay: FACS on transfected Expi293 cells
T2 construct: also called Mouse-Human chimeric KLB; chMoHu
Experimental: (§1) Studies were performed in order to localize the binding site on human KLB of anti-beta klotho antibodies in the 5H23 epitope bin, including 5H23 as described in Example 3, with sequences shown in Tables 1-10 and FIGS. 1-3, and human anti-beta klotho antibodies in the 5H23 epitope bin, such as humanized 5H23 antibodies (e.g., VH SEQ ID NO: 271 and VL SEQ ID NO: 276). For example, FACS-based binding assays for domain mapping were performed on Expi293 cells (Life Technologies, A14635) that were transiently transfected with plasmids encoding variants of KLB: human, mouse, cynomolgus, a chimeric version in which the KL1 domain sequence of mouse KLB (M1-F506) replaces the KL1 domain of human KLB (M1-F508) to create mouse-human KLB (SEQ ID NO: 376), and a second chimera in which the human KL1 sequence (M1-F508) replaces the KL1 domain of mouse KLB (M1-F506) to create human-mouse KLB (SEQ ID NO: 374). Additionally, the expression vector pYD7 harboring no KLB sequence was transfected as a negative control.
(§2) In some studies, binding of a purified sample of a humanized 5H23 antibody (e.g., VH SEQ ID NO: 271 and VL SEQ ID NO: 276) to KLB variants was determined by FACS analysis. […] After washing with PBS/1% BSA/0.1% azide, transfected cells were then co-incubated with labeled anti-human Fc (Jackson lmmunoresearch) for 30 minutes at 4° C. After washing with PBS/1% BSA/0.1% azide, cells were acquired on flow cytometer (FACS Calibur) and analyzed by cytometric software (FlowJo). To display the resulting data, graphs plotting the number of cells as a function of fluorescence intensity were generated, and the median fluorescence intensity (MFI) was determined for each sample as shown in Table 30.

[5] = biological target: T3, mouse beta klotho expressed on cells (mouse (Mus musculus), UniProt Q99N32 1-1043); assay: FACS on transfected Expi293 cells, antibody 1 µg/ml, labelled anti-human Fc
T3 construct: also called Mouse KLB
T3 sequence: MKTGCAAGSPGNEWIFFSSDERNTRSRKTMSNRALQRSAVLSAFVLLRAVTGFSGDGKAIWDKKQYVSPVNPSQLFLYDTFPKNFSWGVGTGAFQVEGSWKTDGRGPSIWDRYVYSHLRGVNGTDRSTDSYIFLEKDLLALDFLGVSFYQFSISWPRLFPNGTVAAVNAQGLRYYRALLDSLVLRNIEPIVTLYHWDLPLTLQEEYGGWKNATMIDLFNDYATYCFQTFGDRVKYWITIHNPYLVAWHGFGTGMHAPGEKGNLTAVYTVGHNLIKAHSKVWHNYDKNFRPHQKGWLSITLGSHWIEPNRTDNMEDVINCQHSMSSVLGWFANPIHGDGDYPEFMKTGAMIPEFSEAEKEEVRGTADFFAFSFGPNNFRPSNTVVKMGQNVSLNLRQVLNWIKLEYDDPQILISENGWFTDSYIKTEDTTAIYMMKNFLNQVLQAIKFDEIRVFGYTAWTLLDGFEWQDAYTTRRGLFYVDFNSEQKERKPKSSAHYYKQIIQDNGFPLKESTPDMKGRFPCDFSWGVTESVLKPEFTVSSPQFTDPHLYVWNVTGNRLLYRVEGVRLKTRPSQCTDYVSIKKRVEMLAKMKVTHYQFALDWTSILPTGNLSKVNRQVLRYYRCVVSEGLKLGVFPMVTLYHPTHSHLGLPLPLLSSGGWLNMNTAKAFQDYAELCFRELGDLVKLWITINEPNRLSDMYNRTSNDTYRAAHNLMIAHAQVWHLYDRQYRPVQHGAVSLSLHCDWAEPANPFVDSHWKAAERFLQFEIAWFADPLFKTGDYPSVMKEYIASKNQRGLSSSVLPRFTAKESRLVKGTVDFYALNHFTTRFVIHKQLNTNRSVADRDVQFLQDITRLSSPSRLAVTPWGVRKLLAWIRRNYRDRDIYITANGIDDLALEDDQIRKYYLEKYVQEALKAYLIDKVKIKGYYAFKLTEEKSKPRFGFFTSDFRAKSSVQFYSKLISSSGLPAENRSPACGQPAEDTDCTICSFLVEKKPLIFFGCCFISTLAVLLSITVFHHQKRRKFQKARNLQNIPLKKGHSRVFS
Experimental: as §1, §2

[6] = biological target: T2, mouse-human KLB chimeric protein (mouse …); assay: as above
Experimental: as §1, §2

T1 sequence (Q86Z14 whole entry, chain 1 of 2): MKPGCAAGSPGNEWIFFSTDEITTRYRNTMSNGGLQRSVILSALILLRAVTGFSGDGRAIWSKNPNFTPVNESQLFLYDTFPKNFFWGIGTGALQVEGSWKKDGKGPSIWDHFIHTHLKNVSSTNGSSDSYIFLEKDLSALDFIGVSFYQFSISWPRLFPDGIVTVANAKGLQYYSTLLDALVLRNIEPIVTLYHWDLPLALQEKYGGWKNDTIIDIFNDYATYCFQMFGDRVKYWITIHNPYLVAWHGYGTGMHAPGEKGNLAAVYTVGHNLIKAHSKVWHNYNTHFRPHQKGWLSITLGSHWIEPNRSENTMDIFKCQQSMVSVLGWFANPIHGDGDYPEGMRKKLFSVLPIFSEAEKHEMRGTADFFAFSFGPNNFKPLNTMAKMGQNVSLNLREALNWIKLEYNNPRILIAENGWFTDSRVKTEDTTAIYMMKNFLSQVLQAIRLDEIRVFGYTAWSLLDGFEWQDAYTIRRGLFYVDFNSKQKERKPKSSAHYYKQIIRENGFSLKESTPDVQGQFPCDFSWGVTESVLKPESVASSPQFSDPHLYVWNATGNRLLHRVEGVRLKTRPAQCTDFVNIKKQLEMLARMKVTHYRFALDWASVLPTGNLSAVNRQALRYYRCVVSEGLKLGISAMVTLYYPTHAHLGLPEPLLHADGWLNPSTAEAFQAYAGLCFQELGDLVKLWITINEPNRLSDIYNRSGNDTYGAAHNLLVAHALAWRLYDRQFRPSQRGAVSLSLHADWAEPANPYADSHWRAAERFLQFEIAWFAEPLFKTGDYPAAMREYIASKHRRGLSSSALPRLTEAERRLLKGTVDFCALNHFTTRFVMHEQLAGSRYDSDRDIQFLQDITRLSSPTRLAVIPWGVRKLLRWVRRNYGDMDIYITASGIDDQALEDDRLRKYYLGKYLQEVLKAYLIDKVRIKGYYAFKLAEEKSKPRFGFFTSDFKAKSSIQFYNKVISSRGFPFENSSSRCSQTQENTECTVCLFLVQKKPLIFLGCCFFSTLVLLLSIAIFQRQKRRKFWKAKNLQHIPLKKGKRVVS
T1 sequence (P11362 22-822 limits assumed, chain 2 of 2): as the sequence (chain, as listed by the source limits assumed, chain 2 of 2) above

B1: Control mAb comprising SEQ ID NO: 358 and SEQ ID NO: 360 (antibody, human IgG2, lambda, V domains shown)
VH: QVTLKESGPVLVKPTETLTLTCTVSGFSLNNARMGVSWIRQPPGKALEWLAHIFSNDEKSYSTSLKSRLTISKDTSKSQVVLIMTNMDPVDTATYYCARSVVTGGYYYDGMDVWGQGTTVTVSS
VL: SYVLTQPPSVSVAPGQTARITCGGNNIGSESVHWYQQKPGQAPVLVVYDDSDRPSGIPERFSGSNSGNTATLTISRVEAGDEADYYCQVWDGNSDHVVFGGGTKLTVLG
notes: also called Control antibody
[1]
  HEK293 huKLB/R1c reporter assay EC50, Experiment - A: 0.0453 nM
  HEK293 huKLB/R1c reporter assay EC50, Experiment - B: 0.0279 nM
[2]
  HEK293 cynoKLB/R1c reporter assay EC50, Experiment - A: 0.108 nM and 0.178 nM
  HEK293 cynoKLB/R1c reporter assay EC50, Experiment - B: 0.227 nM
[3]
  EC50-adipocyte: 3.4 nM
  EC50 reporter assay: 0.2 nM and 0.54 nM
[4]
  binding result: no binding (tested: 1 µg/ml)
[5]
  Mean Fluorescence intensity: 10.6 MFI
[6]
  Mean Fluorescence intensity: 5.6 MFI
